# Where a chain is given by its changes, count along the chain named.
# B1: antibody E5P6 (antibody, V domains shown)
# VH: EVQLVESGGGVVQPGRSLRLSCAASGFIFNNHGMHWVRQAPGKGLEWVAGISYDGKKEYYIGSVKGRFTISRDNSRNTLYLHMNGLRPEDTAVYYCAKEAYGSGSPCDYWGQGTLVTVSS
# VL: EIVLTQSPGTLSLSPGERATLSCRASQRVSSNYLAWYQQKPGQAPRLLIYGASSRATGIPDRFSGSGSGTDFTLTISRLEPEDFAVYYCQQYGTSPRSFGRGTKLEIK
# B2: antibody C9P1 (antibody, V domains shown)
# VH: EVQLLESGGGLVQPGGSLRLSCVTSGFTFSSYSMTWVRQAPGKGLEWVSYISSSSRTISYADSVQGRFTISRDNAKNVLYLQMNSLRAEDTAVYYCARQAVAHFDYWGQGTLVTVSS
# VL: B1 VL with R101Q, L105V
# B3: antibody E2P6 (antibody, V domains shown)
# VH: EVQLVESGGGLIQPGGSLRLSCAASGFTVSTNCMSWVRQAPGTGLEWVSVIYSGGTTYYADSVKGRFTISRDNSRNTLYLQMNGLRAEDTAVYYCARSVDTYDIYALDVWGQGTTVTVSS
# VL: DIQMTQSPSTLSASVGDRVTITCRASQSISRWLAWYQQKPGKAPKLLIYKASGLHSGAPSRFSGSGSGTEFTLTISGLQPDDFATYFCQQYNSYPWTFGQGTKVEIK
# B4: antibody B8P7 (antibody, V domains shown)
# VH: QVQLQESGPGLVRPSETLSLTCTVSGGSISPYYWNWIRQPPGKGLEWIGYIYYSGNTKYNPSLKSRVTISVDTSKNQFSLKLSSVSAADTAVYYCARDSCSGTCYLGDNWFDPWGQGTLVTVSS
# VL: QSVLTQPPSVSGAPGQRVTISCTGSSSNIGANNDVHWYQHLPGTAPKLLIYGNNHRPSGVPDRFSGSKSGTSASLAITGLQAEDEADYYCQSYDSSLSTSKVFGGGTKLTVL
# B5: antibody C4P6 (antibody, V domains shown)
# VH: B4 VH with D108G
# VL: B4 VL
# B6: antibody G6P7 (antibody, V domains shown)
# VH: B4 VH
# VL: B4 VL with S9P
# B7: antibody G7P7 (antibody, V domains shown)
# VH: QVQLQESGPGLVRPSQTLSLTCTVSGGSMTSGSYYWSWIRQPAEKGLEWIGRIYTSGRTDYNPSLKSRVAMSIDTSKNQFSLRLTSVTAADTAVYYCARWGDSSAYYYVGDPWGRGTPVTVSS
# VL: DIQMTQSPSSLSASIGDRVTITCRASQNINTYLYWYQQKPGKAPQLLIYAASNLQTGAPSRFSGSGSGTDFTLTISSLQPADFATYYCQQSFSLPHTFGQGTKLEIK
# B8: antibody G8P6 (antibody, V domains shown)
# VH: B7 VH with P118T
# VL: B7 VL
# B9: antibody C6P7 (antibody, V domains shown)
# VH: B7 VH
# VL: B7 VL with L104V
# B10: antibody C11P1 (antibody, V domains shown)
# VH: QVQLQESGPGLVKPSETLSLTCTVSGGSIRNSYWSWIRQPPGKGLEWIGYIYYTGTTNSNPSLKSRATISVHMSQNQISLKLNSVTPADTAVYYCAQGGGSGDLHYWGQGTLVTVSS
# VL: NFMLTQPASVSGSPGQSITISCTGTRSDVGGYNYVSWYQQHPGKAPKLMIYDISSRPSGVSNRFSASKSGNTASLTISGLQAEDEADYYCISFATGYTWVFGGGTRLTVL
# B11: antibody B2P8 (antibody, V domains shown)
# VH: B10 VH with A67V
# VL: EIVLTQSPDTLSLSPGARATLSCRASQSVRSNYLAWYQQKPGQAPRLLIYGASSRATAIPDRFSGSGSGTDFTLTITRLEPEDFAVYYCHQYASSPRTFGQGTKVEIK
# B12: antibody E7P5 (antibody, V domains shown)
# VH: B10 VH with P40S, T56S, A67L, I69V
# VL: B10 VL with N1Q, F2S, M3A, M49I, R106S
# B13: antibody G5P1 (antibody, V domains shown)
# VH: B10 VH with E16G, A67V, Q75R
# VL: B10 VL
# B14: antibody F3P6 (antibody, V domains shown)
# VH: QVQLVQSGAEVKKPGASVKVSCKASGYTFTTHIIHWVRQAPGQRLEWMGWINAGNGNTHYSEKFQGRVTLTRDTSASTAYMELSSLRSEDTAIYYCAREDQWLGRSPLEYWGQGTLVTVSS
# VL: EIVLTQSPGTLSLSPGERATLSCRASQSVSSSYLAWYQHKPGQAPRLLIYGASSRATGIPDRFSGSGSGTDFTLTISRLEPEDFAVYYCQQYGNSYPWTFGQGTKVEIK
# B15: antibody B5P4 (antibody, V domains shown)
# VH: QVQLVQSGAEVKKPGSSVKVSCKASGGRFSRYGSSWVRQAPGQGLEWMGGIIPLLGTANYAQKFQDRVSITADESTSTVYMHLSSLRSEDTAVYYCATARREYDRPGAEYFIQWGQGTLVTVSS
# VL: EIVMTQSPATLSVSPGERATLSCRASQSVSTNLAWYQQKPGQAPRLLIYDAFLRATGIPARFSGSGSGTEFTLTISSLQPEDFAVYYCQQYNYWPPLTFGGGTKVEIK
# Legend:
# [1] = biological target: VP1 capsid protein on BKV pseudovirions of genotype Ia (BK-D; JF894228) (BK virus genotype Ia (BK-D)); experiment: cell-based or functional assay
# [2] = biological target: VP1 capsid protein on BKV pseudovirions of genotype II (GBR-12; AB263920) (BK virus genotype II (GBR-12)); experiment: cell-based or functional assay
# [3] = biological target: VP1 capsid protein on BKV pseudovirions of genotype IVc2 (A-66H; AB369093) (BK virus genotype IVc2 (A-66H)); experiment: cell-based or functional assay
# [4] = biological target: T1, VP1 pentamer of BKV genotype IV (recombinant) (BK virus genotype IV, UniProt P14996 30-300); experiment: ELISA, coated VP1 pentamer
# T1 construct: also called GIV; VP1 BKV subtype IV; not shown: N-terminal His-tag of pESPRIT002; C-terminal biotin acceptor peptide (BAP) of pESPRIT002
# [5] = biological target: T2, VP1 pentamer of BKV genotype II (recombinant) (BK virus genotype II, UniProt P14996 30-300); experiment: ELISA, coated VP1 pentamer
# T2 construct: also called GII; VP1 geno II pentamer; not shown: N-terminal His-tag of pESPRIT002; C-terminal biotin acceptor peptide (BAP) of pESPRIT002
Binder,Neutralization PSV IC50 [1] [µg/mL],Neutralization PSV IC50 [2] [µg/mL],Neutralization PSV IC50 [3] [µg/mL],EC50 [4] [µg/mL],EC50 [5] [µg/mL],binding result [4],binding result [5]
B1,> 50,> 50,> 50,5,6,–,–
B2,> 50,> 50,> 50,–,–,no binding (tested: starting at 50 µg/mL),no binding (tested: starting at 50 µg/mL)
B3,> 50,> 50,> 50,0.6,0.14,–,–
B4,0.0019,0.0004,0.164,3,0.04,–,–
B5,0.32,0.103,0.726,2.25,2.5,–,–
B6,0.0038,0.0041,0.883,2.5,0.2,–,–
B7,12.5,0.0007,0.0036,0.04,0.06,–,–
B8,6.44,0.0058,0.0582,0.06,0.08,–,–
B9,0.104,0.0002,0.0053,0.08,0.55,–,–
B10,0.351,0.0015,0.0942,0.22,0.045,–,–
B11,> 50,> 50,> 50,12,5,–,–
B12,0.0719,0.0002,0.0056,0.08,0.055,–,–
B13,0.538,0.0016,0.108,2.5,0.07,–,–
B14,0.363,0.0062,0.262,1.25,0.15,–,–
B15,> 3.12,> 50,> 50,–,–,no binding (tested: starting at 50 µg/mL),no binding (tested: starting at 50 µg/mL)
